Assays:
[1] = molecular target: T1, Recombinant PCNA (proliferating cell nuclear antigen) (human, UniProt P12004 1-261); experiment: SPR; 1000 nM caPep
[2] = molecular target: T1, Recombinant PCNA (proliferating cell …); experiment: SPR; 500 nM caPep
[3] = molecular target: T1, Recombinant PCNA (proliferating cell …); experiment: SPR; 0 nM caPep

T1 sequence (P12004 whole entry): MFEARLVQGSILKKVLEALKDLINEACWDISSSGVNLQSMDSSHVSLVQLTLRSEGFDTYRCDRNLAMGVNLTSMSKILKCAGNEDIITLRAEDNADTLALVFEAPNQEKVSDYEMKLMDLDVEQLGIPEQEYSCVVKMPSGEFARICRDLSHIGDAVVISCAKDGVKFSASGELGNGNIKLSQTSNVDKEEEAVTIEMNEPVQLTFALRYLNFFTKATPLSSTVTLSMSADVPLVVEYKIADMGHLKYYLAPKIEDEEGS

Kd [1]: 250 µM
Kd [2]: 3.33 µM
Kd [3]: 0.0846 µM
B1: FEN1 peptide containing the PIP-box (peptide)
peptide: SKSRQGSTQGRLDDFF
